Laboratory results as given in publication PMC11317896, “Stem lodging Resistance-1 controls stem strength by positively regulating the biosynthesis of cell wall components in Capsicum annuum L”.

The binders below were run against T1, CaNAC6 (GST-NAC6 fusion) (Capsicum annuum, UniProt A0A1U8EDX1 1-299) (assay: EMSA; LightShift chemiluminescence EMSA kit (Bes5003), 6% acrylamide gel; buffer, salt, pH and temperature not stated). Details: protein: recombinant; tags: GST; chain copies: 2; label: biotin.
T1 sequence: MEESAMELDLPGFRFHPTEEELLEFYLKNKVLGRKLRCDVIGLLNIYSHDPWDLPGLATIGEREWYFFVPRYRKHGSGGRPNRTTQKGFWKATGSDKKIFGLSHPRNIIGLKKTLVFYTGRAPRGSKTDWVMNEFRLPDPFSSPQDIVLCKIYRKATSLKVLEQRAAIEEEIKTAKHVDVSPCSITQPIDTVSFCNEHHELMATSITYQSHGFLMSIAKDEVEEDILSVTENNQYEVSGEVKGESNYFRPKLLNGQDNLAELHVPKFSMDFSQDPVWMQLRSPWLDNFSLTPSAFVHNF

| Binder | binding result |
| --- | --- |
| CaSLR1 SNBE1 mutant probe (dsDNA) DNA 1: CTTTTGGATTTGTCTTGTAAGAAGATCAA DNA 2: TTGATCTTCTTACAAGACAAATCCAAAAG | no binding |
| CaSLR1 SNBE2 mutant probe (dsDNA) DNA 1: GTTGTGTTTCTCTTTTATACGTTGGTCGT DNA 2: ACGACCAACGTATAAAAGAGAAACACAAC | no binding |
| CaSLR1 SNBE3 mutant probe (dsDNA) DNA 1: TCTTAGTACTTATACCTCAAGGCGCAAGG DNA 2: CCTTGCGCCTTGAGGTATAAGTACTAAGA | no binding |
